Laboratory results published in US20150086558A1 (ACADEMIA SINICA, published 2015).

T1: P1 peptide, junction peptide of CH4-CεmX (SVNPGLAGGSAQSQRAPDRVL) (human)
T1 construct: Synthetic peptide coated on ELISA plates at 10 ug/mL
T1 peptide: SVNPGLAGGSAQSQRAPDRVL

T2: P1.15 peptide SVNPGLAGGSAQS (human)
T2 peptide: SVNPGLAGGSAQS


Assays:
[1] = target: T1, P1 peptide, junction peptide of …; test: ELISA screen of hybridomas on coated P1 peptide
Protocol: Hybridoma cells secreting antibodies with the desired antigen-binding activities were screened as follows. Microtiter plates were coated by incubating with 10 μg/mL of P1 peptide and various other peptides or 1 μg/mL of various recombinant CεmX-fusion proteins in carbonate buffer, 0.1M, pH 9.6, overnight at 4° C. The wells were blocked with 1% BSA in PBS, pH=7.3 for 1 hour and incubated with the antisera or control antibodies at various dilutions for 1 hour at 37° C. After washing, the ligand-bound antibodies were detected by HRP-conjugated goat anti-mouse IgG, Fcγ fragment specific (Jackson ImmunoResearch) at 1:10,000 and incubated for 1 hour at 37° C., followed by incubation with TMB substrate (Clinical Scientific Products). The OD was determined at 450 nm. Positive clones were selected for further characterization.

[2] = target: T2, P1.15 peptide SVNPGLAGGSAQS; test: ELISA on coated synthetic peptide
[3] = target: T3, IgE.CH3-CH4 recombinant protein (UniProt P01854 211-426, limits assumed); test: ELISA on coated recombinant protein
T3 construct: domain: CH3-CH4; Recombinant protein coated at 1 ug/mL in ELISA
T3 sequence (P01854 211-426 limits assumed): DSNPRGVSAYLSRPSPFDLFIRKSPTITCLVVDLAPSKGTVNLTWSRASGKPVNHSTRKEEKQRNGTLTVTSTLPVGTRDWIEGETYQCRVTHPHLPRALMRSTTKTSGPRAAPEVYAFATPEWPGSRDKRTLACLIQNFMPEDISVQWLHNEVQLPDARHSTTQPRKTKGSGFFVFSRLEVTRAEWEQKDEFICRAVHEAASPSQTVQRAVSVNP

Row | Binder | binding result [1] | binding result [2] | binding result [3]
1 | monoclonal anti-IgE antibody mAb 5A8 (antibody, V domains shown, Mouse hybridoma monoclonal antibody; It was detected with anti-mouse IgG reagents) VH: QVQLKQSGPGLVAPSQSLSITCTVSGFSLTDYGVNWVRQPPGKGLEWLGMIWGDGSTDYNSTLKSRLSISKDNSKSQVFLKINSLQTDDTARYYCALNWFAYWGQGTLVTAAA VL: NIVMTQSPAIMSASPGEKVTMTCSASSSVNYMHWYQQKSGTSPKRWIYDTSKLASGVPARFSGSGSGTSYSLTISSMEAEDAATYYCQQWSSNPWTFGGGTKLEIK | binds | – | –
2 | monoclonal anti-IgE antibody mAb 2H9 (antibody, V domains shown, Mouse hybridoma monoclonal antibody from BALB/c mice immunized with HBcAg-P1; It was detected with anti-mouse IgG reagents) VH: QVQMQQPGAELVRPGASVKMSCRTSGYTFTNYNVHWLKQTPGQGLEWIGGMYPGNDDILYNQNFKDRATLTADRSSSTAYIQLRSLTSEDSAVYYCTRSGLQGPWFDYWGQGTLVTVSA VL: DIQMTQSSSYLSVSLGGRVTISCRASDHINNWLAWYQQKPGNAPRLLISSATSLETGVPSRFSGSGSGKDYSLTIISVQTEDVATYYCQQCWITPFTFGSGTKLEIK | binds | binds | no binding
